Target: Htz1(T46C)-2xFLAG (yeast histone H2A.Z with a cysteine probe) (S. cerevisiae)
Experiment: cross-linking

Row | percent of bulk H2A.Z in the H2A-to-H2A.Z cross-linked adduct (WT cells) [%] | percent of bulk H2A.Z in the H2A.Z-to-H2A.Z cross-linked adduct (WT cells) [%] | Substance
1 | 57 | – | Hta1(N39C) (yeast histone H2A with a cysteine probe) (natural protein)
2 | – | 12 | Htz1(T46C)-2xFLAG (yeast histone H2A.Z with a cysteine probe) (natural protein)

Reference: publication doi:10.1101/2023.12.06.570360
